From patent publication US20230136228A1 (LAMKAP BIO ALPHA, published 2023)
Residue numbers refer to the chain shown, from its start. In names and notes the source's numbering stands.

T1: human CEACAM5 (carcinoembryonic antigen, CEA), cell surface (human, UniProt P06731 35-685)
T1 sequence (looked up): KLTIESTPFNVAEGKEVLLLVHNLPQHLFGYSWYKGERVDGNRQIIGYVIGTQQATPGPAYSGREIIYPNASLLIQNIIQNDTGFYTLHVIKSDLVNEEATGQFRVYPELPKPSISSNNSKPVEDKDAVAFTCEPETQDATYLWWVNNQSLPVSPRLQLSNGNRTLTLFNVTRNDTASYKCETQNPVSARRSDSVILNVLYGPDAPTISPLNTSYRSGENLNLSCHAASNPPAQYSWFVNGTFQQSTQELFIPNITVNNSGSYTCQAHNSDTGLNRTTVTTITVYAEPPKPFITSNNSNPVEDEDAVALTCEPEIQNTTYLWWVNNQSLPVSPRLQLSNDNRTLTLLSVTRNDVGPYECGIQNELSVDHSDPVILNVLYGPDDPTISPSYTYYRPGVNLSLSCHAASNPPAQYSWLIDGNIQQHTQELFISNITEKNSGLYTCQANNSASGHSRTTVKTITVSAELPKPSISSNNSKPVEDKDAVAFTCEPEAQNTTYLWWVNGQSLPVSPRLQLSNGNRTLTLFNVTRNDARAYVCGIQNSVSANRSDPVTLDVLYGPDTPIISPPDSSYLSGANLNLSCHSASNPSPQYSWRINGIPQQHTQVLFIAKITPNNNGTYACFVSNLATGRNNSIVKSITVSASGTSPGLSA

T2: human CEACAM8 (human, UniProt P31997 35-320)
T2 construct: whole, on cells
T2 sequence (looked up): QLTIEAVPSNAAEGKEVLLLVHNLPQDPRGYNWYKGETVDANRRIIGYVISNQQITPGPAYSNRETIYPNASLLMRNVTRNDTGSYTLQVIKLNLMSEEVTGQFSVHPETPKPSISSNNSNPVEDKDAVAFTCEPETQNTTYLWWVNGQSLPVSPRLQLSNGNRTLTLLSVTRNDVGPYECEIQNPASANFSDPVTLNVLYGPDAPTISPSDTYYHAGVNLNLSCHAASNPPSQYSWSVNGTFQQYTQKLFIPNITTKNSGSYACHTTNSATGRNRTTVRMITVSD

T3: human CEACAM3 (human, UniProt P40198 35-252)
T3 construct: whole, on cells
T3 sequence (looked up): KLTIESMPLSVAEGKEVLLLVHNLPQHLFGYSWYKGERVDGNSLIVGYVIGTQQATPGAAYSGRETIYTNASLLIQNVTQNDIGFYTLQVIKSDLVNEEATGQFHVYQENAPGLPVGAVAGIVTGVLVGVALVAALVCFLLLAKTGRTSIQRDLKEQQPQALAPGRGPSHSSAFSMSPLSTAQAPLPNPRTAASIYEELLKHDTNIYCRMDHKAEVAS

B1: AB17L3-1/N (bispecific antibody, human IgG1, kappa, lambda, L234A L235A)
heavy: EVQLVESGGGLVQPGGSLKLSCAASGFTFNTYAMNWVRQAPGKGLEWVGRIRSKYNNYATYYADSVKDRFTISRDDSKNTAYLQMNSLKTEDTAVYYCVRHGNFGNSYVSWFAYWGQGTLVTVSSASTKGPSVFPLAPSSKSTSGGTAALGCLVKDYFPEPVTVSWNSGALTSGVHTFPAVLQSSGLYSLSSVVTVPSSSLGTQTYICNVNHKPSNTKVDKRVEPKSCDKTHTCPPCPAPEAAGGPSVFLFPPKPKDTLMISRTPEVTCVVVDVSHEDPEVKFNWYVDGVEVHNAKTKPREEQYNSTYRVVSVLTVLHQDWLNGKEYKCKVSNKALAAPIEKTISKAKGQPREPQVYTLPPSREEMTKNQVSLTCLVKGFYPSDIAVEWESNGQPENNYKTTPPVLDSDGSFFLYSKLTVDKSRWQQGNVFSCSVMHEALHNHYTQKSLSLSPG
light 1: EIVLTQSPATLSLSPGERATLSCRASQSVNSNLNWYQQKPGQAPRLLIYHGSNRATGIPARFSGSGSGTDFTLTISSLEPEDFAVYYCQQFDYFKEHNTFGQGTKVEIKRTVAAPSVFIFPPSDEQLKSGTASVVCLLNNFYPREAKVQWKVDNALQSGNSQESVTEQDSKDSTYSLSSTLTLSKADYEKHKVYACEVTHQGLSSPVTKSFNRGEC
light 2: QTVVTQEPSLTVSPGGTVTLTCRSSTGAVTTSNYANWFQQKPGQAPRGLIGGTNKRAPGTPARFSGSLLGGKAALTLSGAQPEDEAEYYCALWYKQRWVFGGGTKLTVLGQPKAAPSVTLFPPSSEELQANKATLVCLISDFYPGAVTVAWKADSSPVKAGVETTTPSKQSNNKYAASSYLSLTPEQWKSHRSYSCQVTHEGSTVEKTVAPTECS
notes: Kappa-lambda body, lead optimization wave 1
B2: AB1L3-1/N (bispecific antibody, human IgG1, kappa, lambda, L234A L235A)
heavy: B1 heavy
light 1: B1 light 1 with Y93L, F94R, K95H
light 2: B1 light 2
notes: Kappa-lambda body: common heavy chain (hIgG1 L234A+L235A+P329A), kappa CEA light chain AB1, lambda CD3 light chain L3-1 (1A4); also called parental KL bispecific antibody
B3: AB71L3-1/N (bispecific antibody, human IgG1, kappa, lambda, L234A L235A)
heavy: B1 heavy
light 1: B1 light 1 with G51S, A55P, T56H
light 2: B1 light 2
notes: Kappa-lambda body, lead optimization wave 2
B4: AB73L3-1/N (bispecific antibody, human IgG1, kappa, lambda, L234A L235A)
heavy: B1 heavy
light 1: B1 light 1 with G51S, S52N, A55P, T56H, K95R, H97Y
light 2: B1 light 2
notes: as for B3
B5: AB72L3-1/N (bispecific antibody, human IgG1, kappa, lambda, L234A L235A)
heavy: B1 heavy
light 1: B1 light 1 with G51S, S52T, A55P, T56R, H97Y
light 2: B1 light 2
notes: as for B3

Key:
[1] = molecular target: T1, human CEACAM5 (carcinoembryonic …); test: cell-based or functional assay
human CEACAM8 = molecular target: T2, human CEACAM8; test: flow cytometry, transfected PEAK cells, 10 mcg/ml
Source text: (§1) Vectors encoding the full-length version of human CEACAM 1, 3, 4, 5, 6, 7, 8, 18, 19, 20 and […] are used to express these proteins at the surface of PEAK and/or CHO cells as described in Example 1. Similarly, vectors encoding the full-length version of cyno CEACAM 5 and 6 are also used to express these proteins at the surface of PEAK and/or CHO cells. Non-transfected PEAK and/or CHO cells are used as negative control. Cells are harvested, counted, checked for viability and resuspended at 3×10⁶ cells/ml in FACS buffer (PBS 2% BSA, 0.1% NaN₃). 100 μl of the cell suspension are distributed in V-bottom 96-well plates (3×10⁵ cells/well). The supernatant is removed by centrifugation 3 minutes at 4° C., 1300 rpm and the cells incubated for 15 minutes at 4° C. with increasing concentrations of the antibody according to the invention. The antibodies carrying the anti-CEACAM5 arms to test are diluted in FACS buffer and the concentration range is 30 pM-500 nM. Cells are washed twice with cold FACS buffer and re-incubated for further 15 minutes at 4° C. with a compatible anti-human IgG secondary antibody. Cells are washed twice with cold FACS buffer and resuspended in 300 μl FACS buffer with 1:1500-diluted TOPRO-3 (Invitrogen). Fluorescence is measured using a FACSCalibur™ (BD Biosciences) or a Cytoflex Platform (Beckman Coulter). Dose-response binding curves are fitted using GraphPad Prism8 software. In the same manner, CEACAM1, CEACAM6 and other CEACAMs can be characterized.
(§2) For the bispecific antibodies AB17L3-1/N, AB71L3-1/N, AB72L3-1/N, AB73L3-1/N the MFI measured for binding to CEACAM5 transfected cells was found between 29000 and 41000 (Table 2). In contrast MFI found by using PEAK cells transfected with CEACAM 1,3,4,6,8 were found below 1000 with the only exception of a strong signal for AB72L3-1/N on CEACAM8 transfected cells. When MFI values obtained on transfected cells expressing any given CEACAM are divided by the values obtained on WT PEAK cells, “factors to PEAK WT” can be calculated (Table 3).

human CEACAM3 = molecular target: T3, human CEACAM3; test: flow cytometry, transfected PEAK cells, 10 mcg/ml
Source text: as §1, §2

| Binder | Killing EC50, HPAFII cells (TDCC, LDH release) [1] | Killing EC50, LS174T cells (TDCC, LDH release) [1] | Killing EC50, MKN45 cells (TDCC, LDH release) [1] | MFI (human CEACAM8) | MFI (human CEACAM3) |
| --- | --- | --- | --- | --- | --- |
| B1 | 160 pM | 250 pM | 110 pM | 411 MFI | 633 MFI |
| B2 | – | – | – | 343 MFI | 358 MFI |
| B3 | 160 pM | 160 pM | 90 pM | 391 MFI | 358 MFI |
| B4 | 130 pM | 60 pM | 30 pM | 401 MFI | 465 MFI |
| B5 | 120 pM | 110 pM | 20 pM | 6290 MFI | 474 MFI |
